B1: 26S proteasome non-ATPase regulatory subunit 5 (Drosophila melanogaster (Fruit fly)), Q9VYG1 (parent)
chain: MEMEDNWWVTKLKALESKPQRLDALTAMNSAIAKEAALPRQIIERLLTTDQLYDCANPAADSHVPKDQAVDVTLELLCHCLDQLAMDTADEQLSSLLRRGLTHSNPALRAQVLASLFKKLLRQLTVGQVLTLPNNELIFLILDELKQPDTQSTSLAINILSIVLPQRISNADVQAKLVQLLKQNEIVRCRAYELAVVLAKKSATLLSDVTFILDAALSELDNDDVLLQASVMELLVPLAEQNHGLSYMERRRVLDIISYRVQRVEEHPLDALLVPSIMKFFGKISVYQPLKIIGGYPHMLACLFMQLQSEDESILPTAMDTLANLATTPQGKILLNMHFSGAMEKSFKKYGSHTKKLSAHIKKRLLNSLDVIYDFKTPPATEIINIGKNWYECFAGGAHANIIMDLINTPFPDLQMAALSFLKTICKYNWGIVALKNTGGAVEFLLSRQKDLHRDIKYMKWQIMEILSASAEFSPTETIRFTAYVNEGPYHVQADLDVATEPQGNA
partner: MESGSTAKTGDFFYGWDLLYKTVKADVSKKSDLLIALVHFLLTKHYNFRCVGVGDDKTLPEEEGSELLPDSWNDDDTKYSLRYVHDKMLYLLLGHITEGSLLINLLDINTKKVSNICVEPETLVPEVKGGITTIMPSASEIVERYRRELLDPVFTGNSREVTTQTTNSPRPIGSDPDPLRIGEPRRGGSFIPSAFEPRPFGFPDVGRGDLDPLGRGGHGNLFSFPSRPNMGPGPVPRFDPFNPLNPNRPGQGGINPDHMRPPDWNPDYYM
B2: Proteasome inhibitor PI31 subunit (Drosophila melanogaster (Fruit fly)), Q9V637 (parent)
chain: B1 partner
partner: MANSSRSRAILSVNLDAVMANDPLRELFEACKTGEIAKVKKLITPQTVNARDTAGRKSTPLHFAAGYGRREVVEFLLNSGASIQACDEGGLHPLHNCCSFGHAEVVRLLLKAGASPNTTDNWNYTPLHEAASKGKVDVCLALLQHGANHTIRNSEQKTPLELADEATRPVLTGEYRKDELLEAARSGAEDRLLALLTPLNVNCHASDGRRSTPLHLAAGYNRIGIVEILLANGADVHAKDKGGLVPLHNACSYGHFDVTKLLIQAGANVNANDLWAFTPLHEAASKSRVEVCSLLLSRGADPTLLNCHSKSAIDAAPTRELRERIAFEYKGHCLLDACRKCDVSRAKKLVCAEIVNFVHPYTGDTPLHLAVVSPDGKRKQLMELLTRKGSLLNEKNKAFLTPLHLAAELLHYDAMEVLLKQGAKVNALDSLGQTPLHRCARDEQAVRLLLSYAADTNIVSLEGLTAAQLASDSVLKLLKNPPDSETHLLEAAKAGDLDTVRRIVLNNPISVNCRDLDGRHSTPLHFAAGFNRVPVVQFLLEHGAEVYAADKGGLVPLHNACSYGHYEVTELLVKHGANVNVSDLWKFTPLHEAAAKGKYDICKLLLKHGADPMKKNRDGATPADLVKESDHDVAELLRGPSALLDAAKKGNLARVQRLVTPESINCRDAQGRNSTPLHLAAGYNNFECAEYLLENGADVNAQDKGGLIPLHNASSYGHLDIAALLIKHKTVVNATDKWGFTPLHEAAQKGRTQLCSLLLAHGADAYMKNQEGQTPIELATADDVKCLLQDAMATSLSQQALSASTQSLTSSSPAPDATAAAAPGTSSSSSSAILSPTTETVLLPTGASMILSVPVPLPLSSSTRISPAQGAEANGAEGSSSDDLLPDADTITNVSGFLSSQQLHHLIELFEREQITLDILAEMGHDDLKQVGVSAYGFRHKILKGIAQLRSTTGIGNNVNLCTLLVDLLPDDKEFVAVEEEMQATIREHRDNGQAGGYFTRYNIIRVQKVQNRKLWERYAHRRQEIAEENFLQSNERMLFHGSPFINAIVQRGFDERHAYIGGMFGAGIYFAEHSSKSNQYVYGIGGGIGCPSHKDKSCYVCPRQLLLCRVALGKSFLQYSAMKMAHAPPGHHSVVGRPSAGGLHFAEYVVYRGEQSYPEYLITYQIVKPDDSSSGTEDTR
B3: Proteasome inhibitor PI31 subunit (Drosophila melanogaster (Fruit fly)), Q9V637 (parent)
chain: B1 partner
partner: B1 chain
B4: Proteasome inhibitor PI31 subunit (Drosophila melanogaster (Fruit fly)), Q9V637 (parent)
chain: B1 partner
partner: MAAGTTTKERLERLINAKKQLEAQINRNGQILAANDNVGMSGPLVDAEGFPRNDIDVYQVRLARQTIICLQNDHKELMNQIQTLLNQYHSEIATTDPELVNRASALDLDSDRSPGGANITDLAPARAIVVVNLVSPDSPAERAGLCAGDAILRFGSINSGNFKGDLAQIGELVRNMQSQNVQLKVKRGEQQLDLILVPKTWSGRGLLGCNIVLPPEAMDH
B5: 26S proteasome non-ATPase regulatory subunit 9 (Drosophila melanogaster (Fruit fly)), Q9VFS8 (parent)
chain: B4 partner
partner: B1 partner

Variants of: B1
Conditions: with psmf1_drome PI31, Q9V637

Row | effect of a mutation on the interaction | Variant
1 | disrupting interaction strength | MEMEDNWWVTKLKALESKPQRLDALTAMNSAIAKEAALPRQIIARLLTTDQLYDCANPAADSHVPKDQAVDVTLELLCHCLDQLAMDTADEQLSSLLRRGLTHSNPALRAQVLASLFKKLLRQLTVGQVLTLPNNELIFLILDELKQPDTQSTSLAINILSIVLPQRISNADVQAKLVQLLKQNEIVRCRAYELAVVLAKKSATLLSDVTFILDAALSELDNDDVLLQASVMELLVPLAEQNHGLSYMERRRVLDIISYRVQRVEEHPLDALLVPSIMKFFGKISVYQPLKIIGGYPHMLACLFMQLQSEDESILPTAMDTLANLATTPQGKILLNMHFSGAMEKSFKKYGSHTKKLSAHIKKRLLNSLDVIYDFKTPPATEIINIGKNWYECFAGGAHANIIMDLINTPFPDLQMAALSFLKTICKYNWGIVALKNTGGAVEFLLSRQKDLHRDIKYMKWQIMEILSASAEFSPTETIRFTAYVNEGPYHVQADLDVATEPQGNA [E44A]
2 | disrupting interaction strength | MEMEDNWWVTKLKALESKPQRLDALTAMNSAIAKEAALPRQIIERLLTTDQLYDCANPAADSHVPKDQAVDVTLELLCHCLDQLAMDTADEQLSSLLRRGLTHSNPALRAQVLASLFKKLLRQLTVGQVLTLPNNELIFLILDELKQPDTQSTSLAINILSIVLPQRISNADVQAKLVQLLKQNEIVRCRAYELAVVLAKKSATLLSDVTFILDAALSELDNDDVLLQASVMELLVPLAEQNHGLSYMERRRVLDIISYRVQAVEEHPLDALLVPSIMKFFGKISVYQPLKIIGGYPHMLACLFMQLQSEDESILPTAMDTLANLATTPQGKILLNMHFSGAMEKSFKKYGSHTKKLSAHIKKRLLNSLDVIYDFKTPPATEIINIGKNWYECFAGGAHANIIMDLINTPFPDLQMAALSFLKTICKYNWGIVALKNTGGAVEFLLSRQKDLHRDIKYMKWQIMEILSASAEFSPTETIRFTAYVNEGPYHVQADLDVATEPQGNA [R263A]

Variants of: B2
Conditions: with tnks_drome Tnks

Row | effect of a mutation on the interaction | Variant
3 | disrupting interaction strength | MESGSTAKTGDFFYGWDLLYKTVKADVSKKSDLLIALVHFLLTKHYNFRCVGVGDDKTLPEEEGSELLPDSWNDDDTKYSLRYVHDKMLYLLLGHITEGSLLINLLDINTKKVSNICVEPETLVPEVKGGITTIMPSASEIVERYRRELLDPVFTGNSREVTTQTTNSPRPIGSDPDPLRIGEPRRGGSFIPSAFEPRPFGFPDVGRGDADPLGRGGHGNLFSFPSRPNMGPGPVPRFDPFNPLNPNRPGQGGINPDHMRPPDWNPDYYM [L210A]
4 | disrupting interaction strength | MESGSTAKTGDFFYGWDLLYKTVKADVSKKSDLLIALVHFLLTKHYNFRCVGVGDDKTLPEEEGSELLPDSWNDDDTKYSLRYVHDKMLYLLLGHITEGSLLINLLDINTKKVSNICVEPETLVPEVKGGITTIMPSASEIVERYRRELLDPVFTGNSREVTTQTTNSPRPIGSDPDPLRIGEPRRGGSFIPSAFEPRPFGFPDVGRGDLDPLGRGGHGNLFSFPSRPNMGPGPVPRFDPANPLNPNRPGQGGINPDHMRPPDWNPDYYM [F241A]
5 | disrupting interaction strength | MESGSTAKTGDFFYGWDLLYKTVKADVSKKSDLLIALVHFLLTKHYNFACVGVADDKTLPEEEGSELLPDSWNDDDTKYSLRYVHDKMLYLLLGHITEGSLLINLLDINTKKVSNICVEPETLVPEVKGGITTIMPSASEIVERYRRELLDPVFTGNSREVTTQTTNSPRPIGSDPDPLRIGEPRRGGSFIPSAFEPRPFGFPDVGRGDLDPLGRGGHGNLFSFPSRPNMGPGPVPRFDPFNPLNPNRPGQGGINPDHMRPPDWNPDYYM [R49A;G54A]

Variants of: B3
Conditions: with psmd5_drome psmd5, Q9VYG1

Row | effect of a mutation on the interaction | Variant
6 | disrupting interaction strength | MESGSTAKTGDFFYGWDLLYKTVKADVSKKSDLLIALVHFLLTKHYNFRCVGVGDDKTLPEEEGSELLPDSWNDDDTKYSLRYVHDKMLYLLLGHITEGSLLINLLDINTKKVSNICVEPETLVPEVKGGITTIMPSASEIVERYRRELLDPVFTGNSREVTTQTTNSPRPIGSDPDPLRIGEPRRGGSFIPSAFEPRPFGFPDVGRGDADPLGRGGHGNLFSFPSRPNMGPGPVPRFDPFNPLNPNRPGQGGINPDHMRPPDWNPDYYM [L210A]
7 | disrupting interaction strength | MESGSTAKTGDFFYGWDLLYKTVKADVSKKSDLLIALVHFLLTKHYNFRCVGVGDDKTLPEEEGSELLPDSWNDDDTKYSLRYVHDKMLYLLLGHITEGSLLINLLDINTKKVSNICVEPETLVPEVKGGITTIMPSASEIVERYRRELLDPVFTGNSREVTTQTTNSPRPIGSDPDPLRIGEPRRGGSFIPSAFEPRPFGFPDVGRGDLDPLGRGGHGNLFSFPSRPNMGPGPVPRFDPANPLNPNRPGQGGINPDHMRPPDWNPDYYM [F241A]

Variants of: B4
Conditions: with psmd9_drome psmd9, Q9VFS8

Row | effect of a mutation on the interaction | Variant
8 | disrupting interaction strength | MESGSTAKTGDFFYGWDLLYKTVKADVSKKSDLLIALVHFLLTKHYNFRCVGVGDDKTLPEEEGSELLPDSWNDDDTKYSLRYVHDKMLYLLLGHITEGSLLINLLDINTKKVSNICVEPETLVPEVKGGITTIMPSASEIVERYRRELLDPVFTGNSREVTTQTTNSPRPIGSDPDPLRIGEPRRGGSFIPSAFEPRPFGFPDVGRGDADPLGRGGHGNLFSFPSRPNMGPGPVPRFDPFNPLNPNRPGQGGINPDHMRPPDWNPDYYM [L210A]
9 | disrupting interaction strength | MESGSTAKTGDFFYGWDLLYKTVKADVSKKSDLLIALVHFLLTKHYNFRCVGVGDDKTLPEEEGSELLPDSWNDDDTKYSLRYVHDKMLYLLLGHITEGSLLINLLDINTKKVSNICVEPETLVPEVKGGITTIMPSASEIVERYRRELLDPVFTGNSREVTTQTTNSPRPIGSDPDPLRIGEPRRGGSFIPSAFEPRPFGFPDVGRGDLDPLGRGGHGNLFSFPSRPNMGPGPVPRFDPANPLNPNRPGQGGINPDHMRPPDWNPDYYM [F241A]

Variants of: B5
Conditions: with psmf1_drome PI31, Q9V637

Row | effect of a mutation on the interaction | Variant
10 | disrupting interaction strength | MAAGTTTKERLERLINAKKQLEAQINRNGQILAANDNVGMSGPLVDAEGFPRNDIDVYQVRLARQTIICLQNDHKELMNQIQTLLNQYHSEIATTDPELVNRASALDLDSDRSPGGANITDLAPARAIVVVNLVSPDSPAERAGLCAGDAILRFGSINSGNFKGDLAQIGELVRNMQSQNVQLKVKAGEQQLDLILVPKTWSGRGLLGCNIVLPPEAMDH [R187A]
11 | disrupting interaction strength | MAAGTTTKARLERLINAKKQLEAQINRNGQILAANDNVGMSGPLVDAEGFPRNDIDVYQVRLARQTIICLQNDHKELMNQIQTLLNQYHSEIATTDPELVNRASALDLDSDRSPGGANITDLAPARAIVVVNLVSPDSPAERAGLCAGDAILRFGSINSGNFKGDLAQIGELVRNMQSQNVQLKVKRGEQQLDLILVPKTWSGRGLLGCNIVLPPEAMDH [E9A]
